From patent publication US20080319173A1

Molecular target: PSGL-1/mIgG2b produced in CHO cells with FUT2 (Se gene) and α1,3 GalNAcT (A gene) (mouse)
Assay: western blot, chemiluminescence volumes (Fluor-S Max MultImager), anti-A signal divided by anti-mIgG signal

mouse anti-human blood group A all types (mIgM, Dako) (antibody)
relative A epitope density (ratio of blood group A to mIgG reactivity), fold over PSGL-1/mIgG2b made in 293T cells with FUT2 and the A gene: 3 fold
